{
  "source": "patent US20220177596A1",
  "about": "(Bristol-Myers Squibb, published 2022)",
  "data": [
    {"biological_target": "T1, human-CD40 monomer (human, UniProt P25942 21-193, limits assumed)", "T1 construct": "also called hCD40-monomer; human-CD40-monomer protein", "T1 sequence (P25942 21-193 limits assumed)": "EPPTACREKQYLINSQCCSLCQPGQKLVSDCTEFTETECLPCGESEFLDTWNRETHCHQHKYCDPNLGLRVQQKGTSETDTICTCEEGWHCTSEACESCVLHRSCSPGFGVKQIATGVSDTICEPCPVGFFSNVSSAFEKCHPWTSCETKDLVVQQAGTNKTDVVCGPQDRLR", "assay": "SPR 2 pt screen, Ab on protein A", "description": "The VH sequences were formatted in the context of an IgG1.3f isotype. The Vκ sequences were formatted as a full light chain with a common CL sequence. All 55 combinations of these humanized HC and LC constructs, as well as the chimeric Y1238 molecule were expressed as 3 ml supernatants for binding analysis by SPR. Each of the 56 supernatants, as well as a purified Y1238-chimeric IgG1 antibody, was captured on a protein A sensor chip and tested for binding to two concentrations (i.e., 200 nM and 1000 nM) of hCD40-monomer using BIAcore™ SPR in a screening assay. All antibodies, except for those containing hz-HC3, captured at high levels (>300 RU) using a 100-fold dilution of the expression supernatant, indicating a high antibody titer in the supernatant except for the hz-HC3 samples. The kinetic data for the two concentrations of hCD40-monomer were fit to a 1:1 Langmuir model, to yield estimates of the kinetic and affinity values for these interactions, and for comparison of the different molecules. […] Also, for a given heavy chain, the antibodies with light chains hz-LC1 or hz-LC2 had higher CD40 affinity than those with hz-LC3, hz-LC4 or hz-LC5.", "units": {"Kd": "nM", "koff": "s⁻¹", "kon": "M⁻¹ s⁻¹"}, "values": [
      {"binder": "humanized Y1238 hz25 (hz-HC5 / hz-LC5), IgG1.3f (antibody, V domains shown, IgG1.3f heavy constant, common CL; expression supernatant; also called Sup 25) VH: QVQLVQSGAEVKKPGASVKVSCKASGYAFTNYLIEWVRQRPGQGLEWMGVINPGSGGTNYNEKFKGRVTMTADKSISTAYMELSRLRSDDTAVYYCARSQLGRRFDYWGQGTLVTVSS VL: DIQMTQSPSSLSASVGDRVTITCKASQDVRTGVAWYQQKPGQAPKLLIYSASYRNTGVPSRFSGSRSGTDFTFTISSLQPEDIAVYYCQQHYSPPYTFGGGTKVEIK", "Kd": 6.6, "koff": 0.00028, "kon": 43000},
      {"binder": "humanized Y1238 hz2 (hz-HC1 / hz-LC2), IgG1.3f (antibody, V domains shown, IgG1.3f heavy constant, common CL; expression supernatant; also called Sup 2) VH: QVQLVQSGAEVKKPGASVKVSCKASGYAFTNYLIEWVRQAPGQGLEWMGVINPGSGGTNYNEKFKGRVTMTRDTSISTAYMELSRLRSDDTAVYYCARSQLGRRFDYWGQGTLVTVSS VL: DIQMTQSPSSLSASVGDRVTITCKASQDVRTGVAWYQQKPGKAPKLLIYSASYRNTGVPSRFSGSRSGTDFTFTISSLQPEDIATYYCQQHYSPPYTFGGGTKVEIK", "Kd": 5.2, "koff": 0.00023, "kon": 45000},
      {"binder": "humanized Y1238 hz3 (hz-HC1 / hz-LC3), IgG1.3f (antibody, V domains shown, IgG1.3f heavy constant, common CL; expression supernatant; also called Sup 3) VH: QVQLVQSGAEVKKPGASVKVSCKASGYAFTNYLIEWVRQAPGQGLEWMGVINPGSGGTNYNEKFKGRVTMTRDTSISTAYMELSRLRSDDTAVYYCARSQLGRRFDYWGQGTLVTVSS VL: DIQMTQSPSSLSASVGDRVTITCKASQDVRTGVAWYQQKPGQSPKLLIYSASYRNTGVPSRFSGSRSGTDFTFTISSLQPEDIAVYYCQQHYSPPYTFGGGTKVEIK", "Kd": 10, "koff": 0.00048, "kon": 48000},
      {"binder": "humanized Y1238 hz4 (hz-HC1 / hz-LC4), IgG1.3f (antibody, V domains shown, IgG1.3f heavy constant, common CL; expression supernatant; also called Sup 4) VH: QVQLVQSGAEVKKPGASVKVSCKASGYAFTNYLIEWVRQAPGQGLEWMGVINPGSGGTNYNEKFKGRVTMTRDTSISTAYMELSRLRSDDTAVYYCARSQLGRRFDYWGQGTLVTVSS VL: DIQMTQSPSSLSASVGDRVTITCKASQDVRTGVAWYQQKPGQSPKLLIYSASYRNTGVPSRFSGSRSGTDFTFTISSLQAEDIAVYYCQQHYSPPYTFGGGTKVEIK", "Kd": 8.9, "koff": 0.00042, "kon": 48000},
      {"binder": "humanized Y1238 hz5 (hz-HC1 / hz-LC5), IgG1.3f (antibody, V domains shown, IgG1.3f heavy constant, common CL; expression supernatant; also called Sup 5) VH: QVQLVQSGAEVKKPGASVKVSCKASGYAFTNYLIEWVRQAPGQGLEWMGVINPGSGGTNYNEKFKGRVTMTRDTSISTAYMELSRLRSDDTAVYYCARSQLGRRFDYWGQGTLVTVSS VL: DIQMTQSPSSLSASVGDRVTITCKASQDVRTGVAWYQQKPGQAPKLLIYSASYRNTGVPSRFSGSRSGTDFTFTISSLQPEDIAVYYCQQHYSPPYTFGGGTKVEIK", "Kd": 11, "koff": 0.0005, "kon": 47000},
      {"binder": "humanized Y1238 hz6 (hz-HC2 / hz-LC1), IgG1.3f (antibody, V domains shown, IgG1.3f heavy constant, common CL; expression supernatant; also called Sup 6) VH: QVQLVQSGAEVKKPGASVKVSCKASGYAFTNYLIEWVRQAPGQGLEWMGVINPGSGGTNYNEKFKGRVTMTADTSISTAYMELSRLRSDDTAVYYCARSQLGRRFDYWGQGTLVTVSS VL: DIQMTQSPSSLSASVGDRVTITCKASQDVRTGVAWYQQKPGKAPKLLIYSASYRNTGVPSRFSGSGSGTDFTFTISSLQPEDIATYYCQQHYSPPYTFGGGTKVEIK", "Kd": 2.7, "koff": 0.00012, "kon": 45000},
      {"binder": "humanized Y1238 hz7 (hz-HC2 / hz-LC2), IgG1.3f (antibody, V domains shown, IgG1.3f heavy constant, common CL; expression supernatant; also called Sup 7) VH: QVQLVQSGAEVKKPGASVKVSCKASGYAFTNYLIEWVRQAPGQGLEWMGVINPGSGGTNYNEKFKGRVTMTADTSISTAYMELSRLRSDDTAVYYCARSQLGRRFDYWGQGTLVTVSS VL: DIQMTQSPSSLSASVGDRVTITCKASQDVRTGVAWYQQKPGKAPKLLIYSASYRNTGVPSRFSGSRSGTDFTFTISSLQPEDIATYYCQQHYSPPYTFGGGTKVEIK", "Kd": 2.7, "koff": 0.00011, "kon": 43000},
      {"binder": "humanized Y1238 hz8 (hz-HC2 / hz-LC3), IgG1.3f (antibody, V domains shown, IgG1.3f heavy constant, common CL; expression supernatant; also called Sup 8) VH: QVQLVQSGAEVKKPGASVKVSCKASGYAFTNYLIEWVRQAPGQGLEWMGVINPGSGGTNYNEKFKGRVTMTADTSISTAYMELSRLRSDDTAVYYCARSQLGRRFDYWGQGTLVTVSS VL: DIQMTQSPSSLSASVGDRVTITCKASQDVRTGVAWYQQKPGQSPKLLIYSASYRNTGVPSRFSGSRSGTDFTFTISSLQPEDIAVYYCQQHYSPPYTFGGGTKVEIK", "Kd": 6.2, "koff": 0.00029, "kon": 46000},
      {"binder": "humanized Y1238 hz9 (hz-HC2 / hz-LC4), IgG1.3f (antibody, V domains shown, IgG1.3f heavy constant, common CL; expression supernatant; also called Sup 9) VH: QVQLVQSGAEVKKPGASVKVSCKASGYAFTNYLIEWVRQAPGQGLEWMGVINPGSGGTNYNEKFKGRVTMTADTSISTAYMELSRLRSDDTAVYYCARSQLGRRFDYWGQGTLVTVSS VL: DIQMTQSPSSLSASVGDRVTITCKASQDVRTGVAWYQQKPGQSPKLLIYSASYRNTGVPSRFSGSRSGTDFTFTISSLQAEDIAVYYCQQHYSPPYTFGGGTKVEIK", "Kd": 6.6, "koff": 0.00031, "kon": 47000},
      {"binder": "humanized Y1238 hz10 (hz-HC2 / hz-LC5), IgG1.3f (antibody, V domains shown, IgG1.3f heavy constant, common CL; expression supernatant; also called Sup 10) VH: QVQLVQSGAEVKKPGASVKVSCKASGYAFTNYLIEWVRQAPGQGLEWMGVINPGSGGTNYNEKFKGRVTMTADTSISTAYMELSRLRSDDTAVYYCARSQLGRRFDYWGQGTLVTVSS VL: DIQMTQSPSSLSASVGDRVTITCKASQDVRTGVAWYQQKPGQAPKLLIYSASYRNTGVPSRFSGSRSGTDFTFTISSLQPEDIAVYYCQQHYSPPYTFGGGTKVEIK", "Kd": 5.9, "koff": 0.00027, "kon": 45000},
      {"binder": "humanized Y1238 hz16 (hz-HC4 / hz-LC1), IgG1.3f (antibody, V domains shown, IgG1.3f heavy constant, common CL; expression supernatant; also called Sup 16) VH: QVQLVQSGAEVKKPGASVKVSCKASGYAFTNYLIEWVRQAPGQGLEWMGVINPGSGGTNYNEKFKGRVTMTADKSISTAYMELSRLRSDDTAVYYCARSQLGRRFDYWGQGTLVTVSS VL: DIQMTQSPSSLSASVGDRVTITCKASQDVRTGVAWYQQKPGKAPKLLIYSASYRNTGVPSRFSGSGSGTDFTFTISSLQPEDIATYYCQQHYSPPYTFGGGTKVEIK", "Kd": 2.7, "koff": 0.00012, "kon": 45000},
      {"binder": "humanized Y1238 hz17 (hz-HC4 / hz-LC2), IgG1.3f (antibody, V domains shown, IgG1.3f heavy constant, common CL; expression supernatant; also called Sup 17) VH: QVQLVQSGAEVKKPGASVKVSCKASGYAFTNYLIEWVRQAPGQGLEWMGVINPGSGGTNYNEKFKGRVTMTADKSISTAYMELSRLRSDDTAVYYCARSQLGRRFDYWGQGTLVTVSS VL: DIQMTQSPSSLSASVGDRVTITCKASQDVRTGVAWYQQKPGKAPKLLIYSASYRNTGVPSRFSGSRSGTDFTFTISSLQPEDIATYYCQQHYSPPYTFGGGTKVEIK", "Kd": 4.4, "koff": 0.00018, "kon": 42000},
      {"binder": "humanized Y1238 hz18 (hz-HC4 / hz-LC3), IgG1.3f (antibody, V domains shown, IgG1.3f heavy constant, common CL; expression supernatant; also called Sup 18) VH: QVQLVQSGAEVKKPGASVKVSCKASGYAFTNYLIEWVRQAPGQGLEWMGVINPGSGGTNYNEKFKGRVTMTADKSISTAYMELSRLRSDDTAVYYCARSQLGRRFDYWGQGTLVTVSS VL: DIQMTQSPSSLSASVGDRVTITCKASQDVRTGVAWYQQKPGQSPKLLIYSASYRNTGVPSRFSGSRSGTDFTFTISSLQPEDIAVYYCQQHYSPPYTFGGGTKVEIK", "Kd": 7.6, "koff": 0.00035, "kon": 46000},
      {"binder": "humanized Y1238 hz19 (hz-HC4 / hz-LC4), IgG1.3f (antibody, V domains shown, IgG1.3f heavy constant, common CL; expression supernatant; also called Sup 19) VH: QVQLVQSGAEVKKPGASVKVSCKASGYAFTNYLIEWVRQAPGQGLEWMGVINPGSGGTNYNEKFKGRVTMTADKSISTAYMELSRLRSDDTAVYYCARSQLGRRFDYWGQGTLVTVSS VL: DIQMTQSPSSLSASVGDRVTITCKASQDVRTGVAWYQQKPGQSPKLLIYSASYRNTGVPSRFSGSRSGTDFTFTISSLQAEDIAVYYCQQHYSPPYTFGGGTKVEIK", "Kd": 6.3, "koff": 0.00028, "kon": 45000},
      {"binder": "humanized Y1238 hz20 (hz-HC4 / hz-LC5), IgG1.3f (antibody, V domains shown, IgG1.3f heavy constant, common CL; expression supernatant; also called Sup 20) VH: QVQLVQSGAEVKKPGASVKVSCKASGYAFTNYLIEWVRQAPGQGLEWMGVINPGSGGTNYNEKFKGRVTMTADKSISTAYMELSRLRSDDTAVYYCARSQLGRRFDYWGQGTLVTVSS VL: DIQMTQSPSSLSASVGDRVTITCKASQDVRTGVAWYQQKPGQAPKLLIYSASYRNTGVPSRFSGSRSGTDFTFTISSLQPEDIAVYYCQQHYSPPYTFGGGTKVEIK", "Kd": 8.3, "koff": 0.00037, "kon": 45000},
      {"binder": "humanized Y1238 hz21 (hz-HC5 / hz-LC1), IgG1.3f (antibody, V domains shown, IgG1.3f heavy constant, common CL; expression supernatant; also called Sup 21) VH: QVQLVQSGAEVKKPGASVKVSCKASGYAFTNYLIEWVRQRPGQGLEWMGVINPGSGGTNYNEKFKGRVTMTADKSISTAYMELSRLRSDDTAVYYCARSQLGRRFDYWGQGTLVTVSS VL: DIQMTQSPSSLSASVGDRVTITCKASQDVRTGVAWYQQKPGKAPKLLIYSASYRNTGVPSRFSGSGSGTDFTFTISSLQPEDIATYYCQQHYSPPYTFGGGTKVEIK", "Kd": 3.5, "koff": 0.00015, "kon": 42000},
      {"binder": "humanized Y1238 hz22 (hz-HC5 / hz-LC2), IgG1.3f (antibody, V domains shown, IgG1.3f heavy constant, common CL; expression supernatant; also called Sup 22) VH: QVQLVQSGAEVKKPGASVKVSCKASGYAFTNYLIEWVRQRPGQGLEWMGVINPGSGGTNYNEKFKGRVTMTADKSISTAYMELSRLRSDDTAVYYCARSQLGRRFDYWGQGTLVTVSS VL: DIQMTQSPSSLSASVGDRVTITCKASQDVRTGVAWYQQKPGKAPKLLIYSASYRNTGVPSRFSGSRSGTDFTFTISSLQPEDIATYYCQQHYSPPYTFGGGTKVEIK", "Kd": 2.9, "koff": 0.00012, "kon": 40000},
      {"binder": "humanized Y1238 hz23 (hz-HC5 / hz-LC3), IgG1.3f (antibody, V domains shown, IgG1.3f heavy constant, common CL; expression supernatant; also called Sup 23) VH: QVQLVQSGAEVKKPGASVKVSCKASGYAFTNYLIEWVRQRPGQGLEWMGVINPGSGGTNYNEKFKGRVTMTADKSISTAYMELSRLRSDDTAVYYCARSQLGRRFDYWGQGTLVTVSS VL: DIQMTQSPSSLSASVGDRVTITCKASQDVRTGVAWYQQKPGQSPKLLIYSASYRNTGVPSRFSGSRSGTDFTFTISSLQPEDIAVYYCQQHYSPPYTFGGGTKVEIK", "Kd": 7.2, "koff": 0.00031, "kon": 43000}
    ]}
  ]
}
